Measurements taken from patent EP0866075B1, “Method to treat microbial infections by uncoupling of phosphotransferase system and appropriate agents therefor” (Arpida AG,, priority 1997, dated 1998).

Biological target: enzyme I (phosphoenolpyruvate-protein phosphotransferase, EC 2.7.3.9) of the E. coli phosphotransferase system (E. coli), P08839
Assay: cell-based or functional assay

B1: peptide 17 … (peptide)
peptide: SSLRGHRWVY
modifications: not checked
**Q.** What does the source list for B1?
**A.** inhibition IC50: 120 µM; uncoupling Pi/peptide (x IC50/h) (Pi/peptide (x IC50/h)): 50.3
